Experimental data as given in paper PMC9843055, “Karyopherin α deficiency contributes to human preimplantation embryo arrest” (The Journal of Clinical Investigation, 2023).

Biological target: T1, human KPNA7 (karyopherin subunit α7), WT, purified, GST cleaved (human, UniProt A9QM74 1-516)
T1 construct: karyopherin subunit α7 (importin α8), human; also called hKPNA7; importin α8; source: E. coli BL21 (DE3) plysS, purified (glutathione Sepharose, GST tag cut with PreScission protease)
Assay: pull-down; GST-SV40TNLS-GFP or GST-RSL1D1-GFP held on GST beads (4°C, 1 h, transport buffer with 0.1% Triton X-100), then cleaved WT or mutant KPNA7 at 4°C for 2 h; Western blotting
Conditions: both partners purified

T1 sequence (A9QM74 whole entry): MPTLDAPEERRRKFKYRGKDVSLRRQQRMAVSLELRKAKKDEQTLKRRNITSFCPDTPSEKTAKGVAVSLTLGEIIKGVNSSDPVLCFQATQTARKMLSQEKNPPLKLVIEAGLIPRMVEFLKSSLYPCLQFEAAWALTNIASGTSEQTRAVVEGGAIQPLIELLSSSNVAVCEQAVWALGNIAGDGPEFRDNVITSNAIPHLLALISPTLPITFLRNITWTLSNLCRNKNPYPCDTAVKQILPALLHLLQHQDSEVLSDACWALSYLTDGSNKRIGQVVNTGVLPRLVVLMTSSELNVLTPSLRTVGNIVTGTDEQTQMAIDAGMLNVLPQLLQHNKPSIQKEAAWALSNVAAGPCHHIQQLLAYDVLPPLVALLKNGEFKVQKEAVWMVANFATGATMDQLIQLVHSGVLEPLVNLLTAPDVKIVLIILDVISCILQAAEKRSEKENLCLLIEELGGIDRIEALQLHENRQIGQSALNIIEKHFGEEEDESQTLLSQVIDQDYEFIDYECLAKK

B1: GST-SV40TNLS-GFP (other)
chain: PKKKRKV
notes: nuclear localization signal of the SV40 large T antigen (SV40TNLS), between GST and GFP; source: E. coli BL21 (DE3) plysS, purified (glutathione Sepharose); not shown: GST, N-terminal, kept; GFP, C-terminal, kept
  binding result: binds
